# US8728754B1, “Use of proteins isolated from Pseudomonas to control molluscs” (priority 2013, dated 2014)
# B1: dihydrolipoamide dehydrogenase (protein, UniProt P14218 2-478, looked up)
# Dihydrolipoyl dehydrogenase: SQKFDVVVIGAGPGGYVAAIRAAQLGLKTACIEKYIGKEGKVALGGTCLNVGCIPSKALLDSSYKYHEAKEAFKVHGIEAKGVTIDVPAMVARKANIVKNLTGGIATLFKANGVTSFEGHGKLLANKQVEVTGLDGKTQVLEAENVIIASGSRPVEIPPAPLSDDIIVDSTGALEFQAVPKKLGVIGAGVIGLELGSVWARLGAEVTVLEALDKFLPAADEQIAKEALKVLTKQGLNIRLGARVTASEVKKKQVTVTFTDANGEQKETFDKLIVAVGRRPVTTDLLAADSGVTLDERGFIYVDDHCKTSVPGVFAIGDVVRGAMLAHKASEEGVMVAERIAGHKAQMNYDLIPSVIYTHPEIAWVGKTEQTLKAEGVEVNVGTFPFAASGRAMAANDTTGLVKVIADAKTDRVLGVHVIGPSAAELVQQGAIGMEFGTSAEDLGMMVFSHPTLSEALHEAALAVNGHAIHIANRKKR
# notes: Molluscicidal protein isolated from Pseudomonas CL145A, identified as dihydrolipoamide dehydrogenase
# Tested on: mussels
# Experiment: Mussel bioassay in scintillation vials
# Type: in vivo
# Procedure: Mussel bioassays were performed in twenty milliliter scintillation vials. Ten small mussels (approximately 1 cm long) were incubated in the mussel water (10 mL) for 24 hr first, then the mussel water (10 mL) was changed freshly before test cell lysis was added. Cell lysis or proteins (maximal 500 μL) was added into each vial. After 24 hr, the mussel water with cell lysis or proteins was changed with clean mussel water. Then, mussel water was changed every 24 hr with clean mussel water. Dead mussels were taken away every day and mussel mortality was calculated by number of dead mussel divided by the number of total mussels.
molecule,measurement,setting,value
B1,Mussel mortality at 7th day,"5 ppm, 7th day",50%
same,Activity in mussel bioassay of proteins and fractions dosed after gel analysis,in vivo,active
